Laboratory results from the supplement of paper PMC10567573.

B1: SMTNL2 (parent)
chain: QKNFELAFTMAENLANCERLIEVE
B2: ZNF263 (parent)
chain: FGGNPRFLSLHRAHLGEEAHKCLE

Variants of: B1
Assay: protein stability index of a GFP-peptide fusion (GPS, HEK-293T) (PSI 1-6); higher = more stable
Conditions: c terminus: a fixed tail appended
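Note: lentivirally expressed fusions sorted by FACS into six bins by GFP to DsRed ratio, PSI derived from sequencing read proportions per bin multiplied by bin number.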

Protein stability index of substitutions, site by site:
F8: N 2.06, Y 1.35, T 2.6, E 3.82, V 2.12, P 4.98, C 1.07, S 1.45, G 4.29, Q 3.61, W 1.48, H 2.33, D 4.41
L6: K 2.65, V 2.04, T 2.01, I 2.12, Q 2.54, R 3.29, S 2.19, E 2.46, P 3.62, F 1.91, N 2.91, A 3.32, G 3.23, H 2.55
M10: P 3.66, H 3.91, I 1.57, N 4.24, Y 3.45, R 3.77, T 3.66, E 4.17, A 3.87, C 3.37, Q 4.38, G 4.33, V 3.29, K 3.9, S 3.88, L 1.66, D 4.64, W 1.41, F 3.08
N3: R 1.76, I 3.48, Q 1.81, Y 1.96, S 1.78, D 3.28, T 2.09, E 1.61, V 3.1, M 3.62, W 3.6
A11: D 3.85, C 3.46
T9: H 1.96, V 2.5, K 1.39, R 1.13, Y 2.57, Q 1.89, W 2.96, N 2.37, E 2.9, I 3.12, D 2.74, P 3.3, A 1.37, C 2.03, G 2.02, S 1.98
E5: D 1.59, C 2.87, N 2.96, L 1.72, S 1.39, G 2.52, H 1.96, Q 1.25, K 2.24, R 3.01, T 1.94, A 1.62
Q1: F 3.06, D 1.28, K 2.58, V 1.54, L 1.86, G 1.2, N 1.67, Y 1.97, P 2.56, T 1.26
A7: H 2.16, E 1.68, V 1.77, C 2.56, F 1.88, K 2.98, T 2.2, W 2.26, P 3.32, M 1.73, Y 2.08, D 2.85, L 1.22, Q 2.58, S 1.78
F4: E 2.94, D 3.72, R 3.06, P 4.09, V 2.87, I 2.53, A 2.45, T 3.51, N 3.27, Y 1.98, M 2.31, H 1.98, K 4.05, G 3.73, S 3.4
K2: D 2.51, T 1.03, C 1.77, P 2.24, H 1.13, S 1.76, I 2.71, G 1.74, R 2.34, V 1.67, L 1.78, M 1.7, E 1.84

Variants of: B2
Assay: as above
Conditions: c terminus: a fixed tail appended

Protein stability index, by site and new letter:
N4: G 1.56, C 1.62, K 2.31, H 1.97, R 2.46, Q 1.51, F 2.15, V 2.44, M 1.03, Y 1.53
G3: D 3.36, I 3.04, P 2.13, H 2.51, W 2.14, Q 1.53, V 2.83, F 2.69, N 2.24, M 2.05
L8: K 2.53, T 2.77, E 2.54, G 2.1, D 3.1, N 2.25, H 1.86, I 1.41
A13: I 1.35, T 1.98, E 1.66, C 1.71, Y 1.72, S 1.71
F1: D 4.17, K 2.95, G 3.98, R 3.69, C 2.63, L 3.18, M 3.81, H 3.19, N 3.94, E 3.61, T 3.48
G16: W 1.87, I 2.06, E 2.51, D 1.63, N 1.92, C 1.83, T 1.94, S 2.06, L 2.55
G2: W 2.24, E 3.12, T 3.64, N 2.22, C 1.61, M 2.35, P 2.13, D 3.68
A19: Y 1.57, M 2.18, S 2.48, K 1.49, R 1.59, G 1.58, E 2.14, C 2.48, D 1.99, P 2.08, L 1.39
R12: C 1.87, N 2.49, T 1.95, F 2.35, H 1.71, K 1.61, W 1.58, A 2.08, M 2.36
S9: C 2.16, R 1.87, I 2.59, H 1.8, V 1.71, Q 2.9, P 2.1, E 1.97
R6: A 3.22, D 1.83, E 1.3, M 2.5, P 2.73, W 5.27
H14: E 1.15, F 2.55, V 1.96, A 1.74, I 3.64, K 1.81, T 3.21, Y 1.86, S 1.35, Q 2.6, W 2.42
E24: Q 2.37, S 2.75, I 1.51, D 1.71, N 1.48, R 1.75, Y 1.51, L 2.52
E18: M 1.75, D 1.87, G 1.61, Q 1.87, F 1.85, S 2.34, I 2.34
L15: M 1.62, K 2.06, H 2.33, V 1.34, G 1.89, D 2.46
L23: Y 1.75, Q 1.92, W 1.75, K 1.91, E 1.97, P 2.02, C 1.97, A 2.65
L10: Q 2, T 1.99, F 1.8, H 2.17, V 2.66, R 2.69, D 2.47, M 2.02, N 2.22, W 3.91, G 1.34
P5: Q 2.2, A 2.03, E 2.19, K 1.56, I 1.52, R 2.01, T 2.17, G 1.64, N 3.16, M 1.96
H11: K 1.91, G 2.71, I 1.87, T 3.17, E 2.01, S 3.19, A 1.41, Q 1.6
C22: V 2.51, Y 1.88, G 1.62, S 3.62, T 1.47
E17: N 1.97, D 1.36, W 2.12, S 2.07, Y 1.56
H20: A 1.24, Y 2.18, P 1.83, M 2.13, V 1.43, I 1.4, L 1.61, G 1.53
F7: H 2.56, D 3.51, V 2.64, Y 2.04, I 2.19, G 2.63, N 3.42
K21: P 2.13, Y 1.71, D 1.86, W 1.6
